# Data: patent US20070243558A1, “Peptide Stabilization” (priority 2004, published 2007)
# Like-named read-outs stand apart in the source and are kept apart here.
# B1: pepsinogen II (protein, UniProt P20142 17-388, looked up)
# pro-form: AVVKVPLKKFKSIRETMKEKGLLGEFLRTHKYDPAWKYRFGDLSVTYEPMAYMDAAYFGEISIGTPPQNFLVLFDTGSSNLWVPSVYCQSQACTSHSRFNPSESSTYSTNGQTFSLQYGSGSLTGFFGYDTLTVQSIQVPNQEFGLSENEPGTNFVYAQFDGIMGLAYPALSVDEATTAMQGMVQEGALTSPVFSVYLSNQQGSSGGAVVFGGVDSSLYTGQIYWAPVTQELYWQIGIEEFLIGGQASGWCSEGCQAIVDTGTSLLTVPQQYMSALLQATGAQEDEYGQFLVNCNSIQNLPSLTFIINGVEFPLPPSSYILSNNGYCTVGVEPTYLSSQNGQPLWILGDVFLRSYYSVYDLGNNRVGFATAA
# modifications: pro-form
# notes: analyte determined from serum or plasma sample
# Assays:
# [1] = Stability of U-INTP in samples after three days at room temperature, without and with stabilizer (Table 4); assay type: physicochemical; design: U-INTP test result, Immed.: unit not given beside the values; conditions: for U-INTP test result, 3 days + stabilizer / U-INTP, 3 days + stabilizer, in % of immed.-sample: with stabilizer
# From the text: Two parallel tests were done for each sample.
# [2] = Storage stability of analytes in serum sample without stabilizer (background statement); assay type: physicochemical; conditions: room temperature
# From the text: In connection with said determinations and sample handling the poor stability of gastrin-17 has proven to be a problem, due to the fact that it decomposes rapidly in the sample. […] This is in contrast to pepsinogen I and II, which retain their activity at room temperature for many days, and Helicobacter pylori antibodies, which survive for at least three days under refrigerator conditions.
# [3] = room temperature; for effect of adding DMSO on the activity: EDTA-plasma samples, day 0 and day 3
# Procedure: The effect of adding DMSO was tested on pepsinogen I, pepsinogen II, Helicobacter pylori antibodies and gastrin-17. The results are indicated at day 0 and day 3.
# [4] = Stability of the same analytes in serum samples, with and without 5% DMSO (Table 3); assay type: physicochemical
# From the text: Table 3 is a test corresponding to the test of Table 2, but where the ten samples to be tested were serum samples rather than plasma samples.
# [5] = Sample 1, three days at room temperature
# [6] = Sample 1 parall., three days at room temperature
# [7] = Sample 2, three days at room temperature
# [8] = Sample 2 parall., three days at room temperature
# [9] = EDTA-plasma sample PL466s, 0% DMSO, day 0
# [10] = EDTA-plasma sample PL466s, 0% DMSO, day 3
# [11] = EDTA-plasma sample PL466s, 5% DMSO, day 0
# [12] = EDTA-plasma sample PL466s, 5% DMSO, day 3
# [13] = EDTA-plasma sample PL467s, 0% DMSO, day 0
# [14] = EDTA-plasma sample PL467s, 0% DMSO, day 3
# [15] = EDTA-plasma sample PL467s, 5% DMSO, day 0
# [16] = EDTA-plasma sample PL467s, 5% DMSO, day 3
# [17] = EDTA-plasma sample PL471s, 0% DMSO, day 0
# [18] = EDTA-plasma sample PL471s, 0% DMSO, day 3
# [19] = EDTA-plasma sample PL471s, 5% DMSO, day 0
# [20] = EDTA-plasma sample PL471s, 5% DMSO, day 3
# [21] = EDTA-plasma sample PL472s, 0% DMSO, day 0
# [22] = EDTA-plasma sample PL472s, 0% DMSO, day 3
# [23] = EDTA-plasma sample PL472s, 5% DMSO, day 0
# [24] = EDTA-plasma sample PL472s, 5% DMSO, day 3
# [25] = EDTA-plasma sample PL473s, 0% DMSO, day 0
# [26] = EDTA-plasma sample PL473s, 0% DMSO, day 3
# [27] = EDTA-plasma sample PL473s, 5% DMSO, day 0
# [28] = EDTA-plasma sample PL473s, 5% DMSO, day 3
molecule,measurement,setting,value
collagen I aminoterminal telopeptide [U-INTP],"U-INTP test result, Immed.","[1]; Sample 1, immediately",200
same,"U-INTP test result, 3 days no stabilizer",[1]; [5],189
same,"U-INTP, 3 days no stabilizer, in % of immed.-sample",[1]; [5],94.5%
same,"U-INTP test result, 3 days + stabilizer",[1]; [5],202
same,"U-INTP, 3 days + stabilizer, in % of immed.-sample",[1]; [5],101.0%
same,"U-INTP test result, Immed.","[1]; Sample 1 parall., immediately",199
same,"U-INTP test result, 3 days no stabilizer",[1]; [6],187
same,"U-INTP, 3 days no stabilizer, in % of immed.-sample",[1]; [6],94.0%
same,"U-INTP test result, 3 days + stabilizer",[1]; [6],209
same,"U-INTP, 3 days + stabilizer, in % of immed.-sample",[1]; [6],105.0%
same,"U-INTP test result, Immed.","[1]; Sample 2, immediately",113
same,"U-INTP test result, 3 days no stabilizer",[1]; [7],115
same,"U-INTP, 3 days no stabilizer, in % of immed.-sample",[1]; [7],101.8%
same,"U-INTP test result, 3 days + stabilizer",[1]; [7],144
same,"U-INTP, 3 days + stabilizer, in % of immed.-sample",[1]; [7],127.4%
same,"U-INTP test result, Immed.","[1]; Sample 2 parall., immediately",118
same,"U-INTP test result, 3 days no stabilizer",[1]; [8],114
same,"U-INTP, 3 days no stabilizer, in % of immed.-sample",[1]; [8],96.6%
same,"U-INTP test result, 3 days + stabilizer",[1]; [8],136
same,"U-INTP, 3 days + stabilizer, in % of immed.-sample",[1]; [8],115.3%
pepsinogen I [PGI],time for which activity is retained,[2],many days
same,PGI concentration,[3]; [9],58.8 µg/L
same,PGI concentration,[3]; [10],76.9 µg/L
same,PGI concentration,[3]; [11],60.5 µg/L
same,PGI concentration,[3]; [12],77.4 µg/L
same,PGI concentration,[3]; [13],73.3 µg/L
same,PGI concentration,[3]; [14],94.9 µg/L
same,PGI concentration,[3]; [15],76.8 µg/L
same,PGI concentration,[3]; [16],98.8 µg/L
same,PGI concentration,[3]; [17],60.6 µg/L
same,PGI concentration,[3]; [18],85.5 µg/L
same,PGI concentration,[3]; [19],67.6 µg/L
same,PGI concentration,[3]; [20],84.3 µg/L
same,PGI concentration,[3]; [21],110.3 µg/L
same,PGI concentration,[3]; [22],134.8 µg/L
same,PGI concentration,[3]; [23],109.4 µg/L
same,PGI concentration,[3]; [24],135.6 µg/L
same,PGI concentration,[3]; [25],94.9 µg/L
same,PGI concentration,[3]; [26],115.4 µg/L
same,PGI concentration,[3]; [27],94.7 µg/L
same,PGI concentration,[3]; [28],102.1 µg/L
same,effect of adding DMSO on the activity,[3],essentially no effect
same,PGI concentration,"[4]; serum sample PL411s, 0% DMSO",283.6 µg/L
same,PGI concentration,"[4]; serum sample PL411s, 5% DMSO",296.0 µg/L
same,PGI concentration,"[4]; serum sample PL420b, 0% DMSO",75.5 µg/L
same,PGI concentration,"[4]; serum sample PL420b, 5% DMSO",79.3 µg/L
same,PGI concentration,"[4]; serum sample PL426s, 0% DMSO",49.7 µg/L
same,PGI concentration,"[4]; serum sample PL426s, 5% DMSO",50.6 µg/L
same,PGI concentration,"[4]; serum sample PL438s, 0% DMSO",158.6 µg/L
same,PGI concentration,"[4]; serum sample PL438s, 5% DMSO",156.0 µg/L
same,PGI concentration,"[4]; serum sample PL439s, 0% DMSO",67.6 µg/L
same,PGI concentration,"[4]; serum sample PL439s, 5% DMSO",68.5 µg/L
same,PGI concentration,"[4]; serum sample PL447b, 0% DMSO",6.0 µg/L
same,PGI concentration,"[4]; serum sample PL447b, 5% DMSO",6.0 µg/L
same,PGI concentration,"[4]; serum sample PL454s, 0% DMSO",100.6 µg/L
same,PGI concentration,"[4]; serum sample PL454s, 5% DMSO",102.3 µg/L
same,PGI concentration,"[4]; serum sample PL455b, 0% DMSO",79.2 µg/L
same,PGI concentration,"[4]; serum sample PL455b, 5% DMSO",81.5 µg/L
same,PGI concentration,"[4]; serum sample PL457b, 0% DMSO",101.1 µg/L
same,PGI concentration,"[4]; serum sample PL457b, 5% DMSO",106.9 µg/L
same,PGI concentration,"[4]; serum sample PL458s, 0% DMSO",77.1 µg/L
same,PGI concentration,"[4]; serum sample PL458s, 5% DMSO",80.1 µg/L
B1,time for which activity is retained,[2],many days
same,PGII concentration,[3]; [9],6.8 µg/L
same,PGII concentration,[3]; [10],8.3 µg/L
same,PGII concentration,[3]; [11],6.6 µg/L
same,PGII concentration,[3]; [12],7.7 µg/L
same,PGII concentration,[3]; [13],5 µg/L
same,PGII concentration,[3]; [14],6.4 µg/L
same,PGII concentration,[3]; [15],4.9 µg/L
same,PGII concentration,[3]; [16],6.2 µg/L
same,PGII concentration,[3]; [17],4.9 µg/L
same,PGII concentration,[3]; [18],5.8 µg/L
same,PGII concentration,[3]; [19],4.8 µg/L
same,PGII concentration,[3]; [20],5.3 µg/L
same,PGII concentration,[3]; [21],5.7 µg/L
same,PGII concentration,[3]; [22],7.3 µg/L
same,PGII concentration,[3]; [23],5.7 µg/L
same,PGII concentration,[3]; [24],6.9 µg/L
same,PGII concentration,[3]; [25],6.4 µg/L
same,PGII concentration,[3]; [26],8.5 µg/L
same,PGII concentration,[3]; [27],6.4 µg/L
same,PGII concentration,[3]; [28],7.9 µg/L
same,effect of adding DMSO on the activity,[3],essentially no effect
same,PGII concentration,"[4]; serum sample PL411s, 0% DMSO",32.8 µg/L
same,PGII concentration,"[4]; serum sample PL411s, 5% DMSO",33.6 µg/L
same,PGII concentration,"[4]; serum sample PL420b, 0% DMSO",6.3 µg/L
same,PGII concentration,"[4]; serum sample PL420b, 5% DMSO",5.7 µg/L
same,PGII concentration,"[4]; serum sample PL426s, 0% DMSO",3.5 µg/L
same,PGII concentration,"[4]; serum sample PL426s, 5% DMSO",3.1 µg/L
same,PGII concentration,"[4]; serum sample PL438s, 0% DMSO",13.6 µg/L
same,PGII concentration,"[4]; serum sample PL438s, 5% DMSO",12.8 µg/L
same,PGII concentration,"[4]; serum sample PL439s, 0% DMSO",5.7 µg/L
same,PGII concentration,"[4]; serum sample PL439s, 5% DMSO",5.2 µg/L
same,PGII concentration,"[4]; serum sample PL447b, 0% DMSO",4.9 µg/L
same,PGII concentration,"[4]; serum sample PL447b, 5% DMSO",4.6 µg/L
same,PGII concentration,"[4]; serum sample PL454s, 0% DMSO",7.7 µg/L
same,PGII concentration,"[4]; serum sample PL454s, 5% DMSO",7.3 µg/L
same,PGII concentration,"[4]; serum sample PL455b, 0% DMSO",7.3 µg/L
same,PGII concentration,"[4]; serum sample PL455b, 5% DMSO",7.1 µg/L
same,PGII concentration,"[4]; serum sample PL457b, 0% DMSO",7.1 µg/L
same,PGII concentration,"[4]; serum sample PL457b, 5% DMSO",6 µg/L
same,PGII concentration,"[4]; serum sample PL458s, 0% DMSO",6.7 µg/L
same,PGII concentration,"[4]; serum sample PL458s, 5% DMSO",5.8 µg/L
